# Experimental data reported in article PMC6913698.
# T1: His-TF-TaGATA1 (Triticum aestivum (line CI12633), UniProt A0A5K7NI72 1-181)
# T1 sequence: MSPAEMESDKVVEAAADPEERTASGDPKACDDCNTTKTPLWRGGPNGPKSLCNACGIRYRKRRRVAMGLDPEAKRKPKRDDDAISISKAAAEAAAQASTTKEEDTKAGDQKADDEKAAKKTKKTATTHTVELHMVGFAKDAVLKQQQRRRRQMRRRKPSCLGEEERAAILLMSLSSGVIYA
# B1: GATA-containing probe (dsDNA)
# DNA 1: AGTCGACGTGGATAATGGATCCTCGAGTGGATAATTCGATC
# DNA 2: GATCGAATTATCCACTCGAGGATCCATTATCCACGTCGACT
# B2: unlabelled GATA-containing competitor (dsDNA)
# DNA 1: B1 DNA 1
# DNA 2: B1 DNA 2
# Legend:
# His-TF-TaGATA1 [1] = target: T1, His-TF-TaGATA1; experiment: EMSA
# His-TF-TaGATA1 [2] = target: T1, His-TF-TaGATA1; experiment: competition
binder,measurement,setting,value
B1,binding result,His-TF-TaGATA1 [1],binds
B2,binding result,His-TF-TaGATA1 [2],binds
